Measurements published in patent publication US20230312743A1 (MIROBIO, published 2023).

T1: human FcγR2A 131R allotype (recombinant, extracellular domain only) (human, UniProt P12318 34-217)
T1 construct: extracellular domain; 131R allotype; Position 131 is the customary mature-protein numbering; also called FcyR2A (131R)
T1 sequence (looked up): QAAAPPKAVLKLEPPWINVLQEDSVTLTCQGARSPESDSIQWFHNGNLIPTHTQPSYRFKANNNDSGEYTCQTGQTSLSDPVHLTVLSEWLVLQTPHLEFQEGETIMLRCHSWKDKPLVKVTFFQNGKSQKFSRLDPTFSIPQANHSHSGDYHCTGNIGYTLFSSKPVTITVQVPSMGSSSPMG

T2: human FcγR2A 131H allotype (recombinant, extracellular domain only) (human, UniProt P12318 34-217)
T2 construct: extracellular domain; 131H allotype; Position 131 is the customary mature-protein numbering; also called FcyR2A (131H)
T2 sequence (looked up): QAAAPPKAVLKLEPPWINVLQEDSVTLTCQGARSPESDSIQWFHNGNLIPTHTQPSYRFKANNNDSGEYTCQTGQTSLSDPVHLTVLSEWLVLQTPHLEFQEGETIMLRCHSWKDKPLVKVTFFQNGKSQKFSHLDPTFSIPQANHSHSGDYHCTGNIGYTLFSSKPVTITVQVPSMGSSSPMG

T3: human FcγR2B (recombinant, extracellular domain only) (human, UniProt P31994 43-217)
T3 construct: extracellular domain; also called FcyR2B; FcgR2B
T3 sequence (looked up): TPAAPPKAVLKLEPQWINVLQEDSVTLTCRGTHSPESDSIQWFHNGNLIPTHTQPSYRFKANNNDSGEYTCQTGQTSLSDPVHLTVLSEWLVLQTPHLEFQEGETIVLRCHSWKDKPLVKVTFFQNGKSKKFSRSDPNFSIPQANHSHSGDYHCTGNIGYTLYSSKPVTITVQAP


Columns and labels:
Assay in all cases: SPR (Biacore 8K), 37 C, steady state; antibody captured on immobilised human PD-1 ECD, FcR ECD as analyte
[1] = target: T1, human FcγR2A 131R allotype …
Description: (§1) The interactions were assessed by surface plasmon resonance using a Biacore 8 K with the recombinantly expressed FcRs (extracellular domains only) as analyte. Briefly, recombinant human PD-1 extracellular domain was covalently immobilized to both flow cells of all channels of a CM5 Series S sensor chip using the GE Healthcare Amine coupling kit. […] Steady state affinity analysis was then performed by injecting varying concentrations of FcR and measuring equilibrium binding. Double referencing was used (subtracting the signal in the reference Fc1 and also subtracting the signal from a blank zero concentration injection). KD values were calculated from the Langmuir curves (plotting equilibrium binding against analyte concentration to determine the concentration required for half maximal binding).

[2] = target: T2, human FcγR2A 131H allotype …
Description: as §1

[3] = target: T3, human FcγR2B (recombinant, …)
Description: as §1

Row | Kd [1] | Kd [2] | Kd [3] | Binder
1 | 12.3 nM | 13.5 nM | 59 nM | humCL19v1 hIgG1 L235N (antibody) VH: not shown VL: ENQLTQSPSSLSASVGDRVTITCRASSSVISSYLHWYQQKPGKAPKLLIYSTSNLASGVPSRFSGSGSGTDYTLTISSLQPEDFATYYCQQYNSYPLTFGGGTKLEIKRTVAAPSVFIFPPSDEQLKSGTASVVCLLNNFYPREAKVQWKVDNALQSGNSQESVTEQDSKDSTYSLSSTLTLSKADYEKHKVYACEVTHQGLSSPVTKSFNRGEC
2 | 0.58 nM | 6.28 nM | 1.54 nM | humCL19v1 hIgG1 V266M (antibody) VH: not shown VL: ENQLTQSPSSLSASVGDRVTITCRASSSVISSYLHWYQQKPGKAPKLLIYSTSNLASGVPSRFSGSGSGTDYTLTISSLQPEDFATYYCQQYNSYPLTFGGGTKLEIKRTVAAPSVFIFPPSDEQLKSGTASVVCLLNNFYPREAKVQWKVDNALQSGNSQESVTEQDSKDSTYSLSSTLTLSKADYEKHKVYACEVTHQGLSSPVTKSFNRGEC
3 | 2.22 nM | 2.83 nM | 6.32 nM | humCL19v1 hIgG1 Y300N (antibody) VH: not shown VL: ENQLTQSPSSLSASVGDRVTITCRASSSVISSYLHWYQQKPGKAPKLLIYSTSNLASGVPSRFSGSGSGTDYTLTISSLQPEDFATYYCQQYNSYPLTFGGGTKLEIKRTVAAPSVFIFPPSDEQLKSGTASVVCLLNNFYPREAKVQWKVDNALQSGNSQESVTEQDSKDSTYSLSSTLTLSKADYEKHKVYACEVTHQGLSSPVTKSFNRGEC
4 | 3.67 nM | 3.96 nM | 13.6 nM | humCL19v1 hIgG1 L235H (antibody) VH: not shown VL: ENQLTQSPSSLSASVGDRVTITCRASSSVISSYLHWYQQKPGKAPKLLIYSTSNLASGVPSRFSGSGSGTDYTLTISSLQPEDFATYYCQQYNSYPLTFGGGTKLEIKRTVAAPSVFIFPPSDEQLKSGTASVVCLLNNFYPREAKVQWKVDNALQSGNSQESVTEQDSKDSTYSLSSTLTLSKADYEKHKVYACEVTHQGLSSPVTKSFNRGEC
5 | 1.65 nM | 3.38 nM | 3.99 nM | humCL19v1 hIgG1 S239I (antibody) VH: not shown VL: ENQLTQSPSSLSASVGDRVTITCRASSSVISSYLHWYQQKPGKAPKLLIYSTSNLASGVPSRFSGSGSGTDYTLTISSLQPEDFATYYCQQYNSYPLTFGGGTKLEIKRTVAAPSVFIFPPSDEQLKSGTASVVCLLNNFYPREAKVQWKVDNALQSGNSQESVTEQDSKDSTYSLSSTLTLSKADYEKHKVYACEVTHQGLSSPVTKSFNRGEC
6 | 17.5 nM | 90.3 nM | 2.79 nM | humCL19v1 P238D (antibody, human IgG1, kappa, That makes them humCL19v1 P238D; also called hIgG1 P238D; P238D mutated humCL19v1) heavy: not shown light: ENQLTQSPSSLSASVGDRVTITCRASSSVISSYLHWYQQKPGKAPKLLIYSTSNLASGVPSRFSGSGSGTDYTLTISSLQPEDFATYYCQQYNSYPLTFGGGTKLEIKRTVAAPSVFIFPPSDEQLKSGTASVVCLLNNFYPREAKVQWKVDNALQSGNSQESVTEQDSKDSTYSLSSTLTLSKADYEKHKVYACEVTHQGLSSPVTKSFNRGEC
7 | 1.62 nM | 3.13 nM | 3.6 nM | humCL19v1 hIgG1 S239V (antibody) VH: not shown VL: ENQLTQSPSSLSASVGDRVTITCRASSSVISSYLHWYQQKPGKAPKLLIYSTSNLASGVPSRFSGSGSGTDYTLTISSLQPEDFATYYCQQYNSYPLTFGGGTKLEIKRTVAAPSVFIFPPSDEQLKSGTASVVCLLNNFYPREAKVQWKVDNALQSGNSQESVTEQDSKDSTYSLSSTLTLSKADYEKHKVYACEVTHQGLSSPVTKSFNRGEC
